Measurements from paper PMC3334620.

Assays:
Settings in all cases: 200 nM
[1] = molecular target: T1, Sut1 (Saccharomyces cerevisiae) (UniProt P53032)
T1 sequence: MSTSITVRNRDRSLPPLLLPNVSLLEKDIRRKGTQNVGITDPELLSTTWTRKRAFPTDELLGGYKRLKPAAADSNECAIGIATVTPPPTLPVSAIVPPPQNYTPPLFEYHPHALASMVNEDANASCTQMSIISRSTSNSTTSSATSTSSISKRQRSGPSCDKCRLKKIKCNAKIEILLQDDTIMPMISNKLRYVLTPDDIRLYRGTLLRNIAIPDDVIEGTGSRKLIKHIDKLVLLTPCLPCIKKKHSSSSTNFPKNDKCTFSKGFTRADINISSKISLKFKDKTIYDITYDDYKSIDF

[2] = molecular target: T2, Upc2 (Saccharomyces cerevisiae) (UniProt Q12151)
T2 sequence: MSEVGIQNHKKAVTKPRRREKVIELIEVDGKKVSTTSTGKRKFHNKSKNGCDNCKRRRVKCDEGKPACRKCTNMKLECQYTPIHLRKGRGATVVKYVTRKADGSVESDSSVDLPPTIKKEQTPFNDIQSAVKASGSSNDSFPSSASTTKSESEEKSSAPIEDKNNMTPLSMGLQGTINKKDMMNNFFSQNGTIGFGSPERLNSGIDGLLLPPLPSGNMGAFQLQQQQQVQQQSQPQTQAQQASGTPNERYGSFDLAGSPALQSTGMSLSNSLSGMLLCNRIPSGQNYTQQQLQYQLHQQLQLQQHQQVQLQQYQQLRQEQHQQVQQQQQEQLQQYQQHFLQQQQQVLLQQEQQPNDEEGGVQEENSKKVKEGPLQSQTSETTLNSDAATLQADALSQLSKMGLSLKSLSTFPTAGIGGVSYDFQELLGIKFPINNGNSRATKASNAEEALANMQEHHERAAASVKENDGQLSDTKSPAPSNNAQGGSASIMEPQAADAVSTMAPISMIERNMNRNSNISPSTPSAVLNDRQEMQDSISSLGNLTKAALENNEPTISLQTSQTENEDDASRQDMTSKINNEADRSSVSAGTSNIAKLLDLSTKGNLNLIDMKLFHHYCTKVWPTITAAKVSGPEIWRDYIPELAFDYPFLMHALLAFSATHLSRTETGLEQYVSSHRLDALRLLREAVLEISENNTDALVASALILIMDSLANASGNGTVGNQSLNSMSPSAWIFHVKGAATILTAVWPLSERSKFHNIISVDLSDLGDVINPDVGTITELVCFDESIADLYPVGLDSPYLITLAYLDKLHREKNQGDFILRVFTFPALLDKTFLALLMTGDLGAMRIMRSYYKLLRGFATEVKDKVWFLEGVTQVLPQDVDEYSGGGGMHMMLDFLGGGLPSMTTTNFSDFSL

[3] = molecular target: T3, Ecm22 (Saccharomyces cerevisiae) (UniProt Q05958)
T3 sequence: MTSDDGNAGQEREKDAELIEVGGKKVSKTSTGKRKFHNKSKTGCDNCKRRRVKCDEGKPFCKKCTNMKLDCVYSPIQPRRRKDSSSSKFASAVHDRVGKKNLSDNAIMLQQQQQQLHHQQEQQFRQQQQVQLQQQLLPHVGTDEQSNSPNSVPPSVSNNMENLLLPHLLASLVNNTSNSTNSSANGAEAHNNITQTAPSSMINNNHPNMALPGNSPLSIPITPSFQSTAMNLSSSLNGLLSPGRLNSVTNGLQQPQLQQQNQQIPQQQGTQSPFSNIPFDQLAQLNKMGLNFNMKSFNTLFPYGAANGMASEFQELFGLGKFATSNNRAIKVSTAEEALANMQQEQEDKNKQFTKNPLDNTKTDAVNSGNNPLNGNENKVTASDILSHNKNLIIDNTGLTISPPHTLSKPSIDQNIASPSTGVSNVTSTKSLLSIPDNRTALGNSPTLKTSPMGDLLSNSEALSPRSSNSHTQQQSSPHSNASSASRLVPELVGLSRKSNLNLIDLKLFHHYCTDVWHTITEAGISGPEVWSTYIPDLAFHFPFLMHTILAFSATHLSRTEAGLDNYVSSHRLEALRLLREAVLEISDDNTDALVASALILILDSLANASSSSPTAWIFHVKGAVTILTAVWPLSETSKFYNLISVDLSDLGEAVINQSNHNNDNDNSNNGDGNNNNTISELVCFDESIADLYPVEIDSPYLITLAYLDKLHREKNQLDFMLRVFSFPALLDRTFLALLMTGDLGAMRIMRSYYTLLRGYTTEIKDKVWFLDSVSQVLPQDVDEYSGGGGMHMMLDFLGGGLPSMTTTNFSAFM

[4] = molecular target: T4, Stp1 (Saccharomyces cerevisiae) (UniProt Q00947)
T4 sequence: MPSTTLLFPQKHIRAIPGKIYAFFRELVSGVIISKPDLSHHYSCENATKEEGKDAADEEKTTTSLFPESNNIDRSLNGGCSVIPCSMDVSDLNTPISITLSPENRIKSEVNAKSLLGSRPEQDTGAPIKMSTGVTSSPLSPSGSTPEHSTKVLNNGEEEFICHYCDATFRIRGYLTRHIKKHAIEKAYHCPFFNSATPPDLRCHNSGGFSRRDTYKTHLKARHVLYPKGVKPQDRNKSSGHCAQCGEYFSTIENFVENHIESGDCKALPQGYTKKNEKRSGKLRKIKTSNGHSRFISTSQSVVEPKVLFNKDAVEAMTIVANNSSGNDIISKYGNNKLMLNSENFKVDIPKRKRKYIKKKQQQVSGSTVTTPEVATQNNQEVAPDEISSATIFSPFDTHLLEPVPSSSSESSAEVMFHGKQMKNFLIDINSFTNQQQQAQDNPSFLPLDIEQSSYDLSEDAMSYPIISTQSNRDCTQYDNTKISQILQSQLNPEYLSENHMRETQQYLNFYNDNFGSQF

[5] = molecular target: T5, Stb5 (Saccharomyces cerevisiae) (UniProt P38699)
T5 sequence: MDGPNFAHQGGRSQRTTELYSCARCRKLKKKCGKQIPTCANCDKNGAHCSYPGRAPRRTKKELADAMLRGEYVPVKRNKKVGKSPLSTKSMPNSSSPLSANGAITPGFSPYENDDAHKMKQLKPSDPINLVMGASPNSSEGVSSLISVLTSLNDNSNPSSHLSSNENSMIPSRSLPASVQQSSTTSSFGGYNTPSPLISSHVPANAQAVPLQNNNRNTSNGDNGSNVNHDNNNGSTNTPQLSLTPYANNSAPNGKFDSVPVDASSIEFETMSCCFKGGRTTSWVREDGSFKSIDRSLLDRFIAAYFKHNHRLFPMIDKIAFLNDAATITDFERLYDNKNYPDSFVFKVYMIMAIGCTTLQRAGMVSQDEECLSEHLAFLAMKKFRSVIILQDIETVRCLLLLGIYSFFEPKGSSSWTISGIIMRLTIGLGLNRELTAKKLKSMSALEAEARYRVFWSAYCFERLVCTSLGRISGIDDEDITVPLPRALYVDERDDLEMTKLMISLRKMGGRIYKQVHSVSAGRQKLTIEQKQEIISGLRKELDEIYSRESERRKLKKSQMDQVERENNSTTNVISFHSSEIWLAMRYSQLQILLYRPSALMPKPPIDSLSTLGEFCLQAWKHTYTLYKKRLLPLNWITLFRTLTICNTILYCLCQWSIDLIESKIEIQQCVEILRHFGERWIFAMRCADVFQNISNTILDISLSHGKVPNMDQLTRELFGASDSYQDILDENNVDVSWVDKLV

“CGGAGTTC (double strand) [8-mer CGGAGTTC]” gave a binding signal (PBM E-score (-0.5 to 0.5)) [1] of 0.498.
“CTATACGA (double strand) [8-mer CTATACGA]” showed a binding signal (PBM E-score (-0.5 to 0.5)) [2] of 0.498 and a binding signal (PBM E-score (-0.5 to 0.5)) [3] of 0.496.
With “CTCGTTTA (double strand) [8-mer CTCGTTTA]” the binding signal (PBM E-score (-0.5 to 0.5)) [2] was 0.495 and the binding signal (PBM E-score (-0.5 to 0.5)) [3] was 0.495.
“ATAAACGA (double strand) [8-mer ATAAACGA]” gave a binding signal (PBM E-score (-0.5 to 0.5)) [2] of 0.494.
“CGTATACG (double strand) [8-mer CGTATACG]” was tested, and the binding signal (PBM E-score (-0.5 to 0.5)) [2] was 0.494.
In the case of “CAACTCCG (double strand) [8-mer CAACTCCG]”, the binding signal (PBM E-score (-0.5 to 0.5)) [1] is reported as 0.497.
“GTCGTTTA (double strand) [8-mer GTCGTTTA]” showed a binding signal (PBM E-score (-0.5 to 0.5)) [2] of 0.494.
With “TCGTTTAA (double strand) [8-mer TCGTTTAA]” the binding signal (PBM E-score (-0.5 to 0.5)) [2] was 0.497 and the binding signal (PBM E-score (-0.5 to 0.5)) [3] was 0.494.
Work on “GTCGTATA (double strand) [8-mer GTCGTATA]” yielded a binding signal (PBM E-score (-0.5 to 0.5)) [2] of 0.496 and a binding signal (PBM E-score (-0.5 to 0.5)) [3] of 0.497.
Work on “ATCGTTTA (double strand) [8-mer ATCGTTTA]” yielded a binding signal (PBM E-score (-0.5 to 0.5)) [2] of 0.495.
With “CAAGTCCG (double strand) [8-mer CAAGTCCG]” the binding signal (PBM E-score (-0.5 to 0.5)) [1] was 0.492.
In the case of “GTGCCGTA (double strand) [8-mer GTGCCGTA]”, the binding signal (PBM E-score (-0.5 to 0.5)) [4] is reported as 0.493.
“TATACGAA (double strand) [8-mer TATACGAA]” was tested, and the binding signal (PBM E-score (-0.5 to 0.5)) [2] was 0.495 and the binding signal (PBM E-score (-0.5 to 0.5)) [3] was 0.494.
“ACGGCACT (double strand) [8-mer ACGGCACT]” gave a binding signal (PBM E-score (-0.5 to 0.5)) [4] of 0.489.
“AACTCCGG (double strand) [8-mer AACTCCGG]” showed a binding signal (PBM E-score (-0.5 to 0.5)) [1] of 0.499.
“AAGTCCGA (double strand) [8-mer AAGTCCGA]” gave a binding signal (PBM E-score (-0.5 to 0.5)) [1] of 0.498.
Work on “CGCACGGC (double strand) [8-mer CGCACGGC]” yielded a binding signal (PBM E-score (-0.5 to 0.5)) [4] of 0.488.
“CACGGCAC (double strand) [8-mer CACGGCAC]” was tested, and the binding signal (PBM E-score (-0.5 to 0.5)) [4] was 0.491.
In the case of “ATCGTATA (double strand) [8-mer ATCGTATA]”, the binding signal (PBM E-score (-0.5 to 0.5)) [2] is reported as 0.493.
In the case of “AACTCCGT (double strand) [8-mer AACTCCGT]”, the binding signal (PBM E-score (-0.5 to 0.5)) [1] is reported as 0.496.
“AAGTCCGG (double strand) [8-mer AAGTCCGG]” showed a binding signal (PBM E-score (-0.5 to 0.5)) [1] of 0.497.
With “CGGACTTC (double strand) [8-mer CGGACTTC]” the binding signal (PBM E-score (-0.5 to 0.5)) [1] was 0.496.
In the case of “AAAGTCCG (double strand) [8-mer AAAGTCCG]”, the binding signal (PBM E-score (-0.5 to 0.5)) [1] is reported as 0.496.
“CACGGCGC (double strand) [8-mer CACGGCGC]” was tested, and the binding signal (PBM E-score (-0.5 to 0.5)) [4] was 0.493.
“CTAAACGA (double strand) [8-mer CTAAACGA]” was tested, and the binding signal (PBM E-score (-0.5 to 0.5)) [2] was 0.496 and the binding signal (PBM E-score (-0.5 to 0.5)) [3] was 0.493.
Work on “GCGCCGCA (double strand) [8-mer GCGCCGCA]” yielded a binding signal (PBM E-score (-0.5 to 0.5)) [4] of 0.491.
“ACTCCGAG (double strand) [8-mer ACTCCGAG]” showed a binding signal (PBM E-score (-0.5 to 0.5)) [1] of 0.494.
In the case of “TAAACGAA (double strand) [8-mer TAAACGAA]”, the binding signal (PBM E-score (-0.5 to 0.5)) [2] is reported as 0.494.
For “CGGAGTTA (double strand) [8-mer CGGAGTTA]”, the binding signal (PBM E-score (-0.5 to 0.5)) [1] was 0.495 and the binding signal (PBM E-score (-0.5 to 0.5)) [5] was 0.487.
For “CGCGGCAC (double strand) [8-mer CGCGGCAC]”, the binding signal (PBM E-score (-0.5 to 0.5)) [4] was 0.49.
“CTCGTATA (double strand) [8-mer CTCGTATA]” showed a binding signal (PBM E-score (-0.5 to 0.5)) [2] of 0.499 and a binding signal (PBM E-score (-0.5 to 0.5)) [3] of 0.498.
“ACTCCGAA (double strand) [8-mer ACTCCGAA]” showed a binding signal (PBM E-score (-0.5 to 0.5)) [1] of 0.495.
“AAACTCCG (double strand) [8-mer AAACTCCG]” showed a binding signal (PBM E-score (-0.5 to 0.5)) [1] of 0.498.
For “GTATACGA (double strand) [8-mer GTATACGA]”, the binding signal (PBM E-score (-0.5 to 0.5)) [2] was 0.495 and the binding signal (PBM E-score (-0.5 to 0.5)) [3] was 0.492.
In the case of “TCGTATAA (double strand) [8-mer TCGTATAA]”, the binding signal (PBM E-score (-0.5 to 0.5)) [2] is reported as 0.497 and the binding signal (PBM E-score (-0.5 to 0.5)) [3] is reported as 0.498.
“AACTCCGA (double strand) [8-mer AACTCCGA]” showed a binding signal (PBM E-score (-0.5 to 0.5)) [1] of 0.499.
“GCACGGCA (double strand) [8-mer GCACGGCA]” showed a binding signal (PBM E-score (-0.5 to 0.5)) [4] of 0.49.
In the case of “ATACGGCG (double strand) [8-mer ATACGGCG]”, the binding signal (PBM E-score (-0.5 to 0.5)) [4] is reported as 0.49.
